# Measured values from patent US20110229465A1, “COMPOSITION FOR TREATING DISEASE” (priority 2008, published 2011).
# B1: BT061: humanized anti-CD4 antibody derived from mouse B-F5, V domains SEQ ID NO: 1 and 2, activates CD4+CD25+ regulatory T cells (antibody, V domains shown)
# VH: EEQLVESGGGLVKPGGSLRLSCAASGFSFSDCRMYWLRQAPGKGLEWIGVISVKSENYGANYAESVRGRFTISRDDSKNTVYLQMNSLKTEDTAVYYCSASYYRYDVGAWFAYWGQGTLVTVSS
# VL: DIVMTQSPDSLAVSLGERATINCRASKSVSTSGYSYIYWYQQKPGQPPKLLIYLASILESGVPDRFSGSGSGTDFTLTISSLQAEDVAVYYCQHSRELPWTFGQGTKVEIK
# modifications: V domain of H chain of humanized antibody hB-F5H37L; V domain of K chain of humanized antibody hB-F5L4M
# Tests used:
# [1] = system: Treg cells; conditions: in vitro 50 nM MTX (highest concentration analyzed); reduced from 94%, p<0.05; cited from earlier work
# [2] = system: CD4+CD25+ regulatory T cells; experiment: in vitro proliferation assay with freshly isolated CD4+CD25+ regulatory T cells; format: cell-based, human
# Protocol: 50 ml EDTA blood specimens were obtained from healthy control donors. Peripheral blood mononuclear cells (PBMCs), regulatory T cells (Tregs) and T helper cells as T responder cells (Tresps) were isolated from peripheral blood samples as previously described (Haas et al., 2007).
# Freshly isolated Tregs were pre-incubated for 48 hours with 1 μg/ml plate bound antibody (BT061), 1 μg/ml soluble BT061 or Medium.
# Freshly isolated Tregs (2.5×10^4, donor A) obtained from 2 donors (Exp. 1 and Exp. 2) were pre-incubated for 48 hours with either 1 μg/ml soluble or plate bound BT061. To achieve allogeneic stimulation the 2.5×10^4 pre-incubated Tregs were then transferred to 1×10^5 T cells as responder cells (Tresps) from a second donor (donor B) in the presence of 2×10^5 T cell depleted and irradiated (30 Gray) PBMCs (donor A). After 4 days of stimulation 1 μCi [3H] thymidine per well was added and proliferation was measured after additional 16 hours.
# The percentage of Treg mediated inhibition of Tresp proliferation is shown in FIG. 1 as the percent suppression of proliferation of Tresps incubated with PBMC in the absence of Tregs. Results are shown for the Tregs obtained from the two donors (Exp. 1 and Exp. 2). […]
# [3] = plasma levels of BT061 after intravenous administration in healthy volunteers; format: in vivo, human; conditions: range in three volunteers
# Source text: This is considered to reflect a faster target mediated clearance.
# [4] = system: rheumatoid arthritis patients; experiment: monotherapy trial of BT061 in rheumatoid arthritis patients, ACR improvements; format: in vivo, human; conditions: week 7, blinded data from 8 individuals (2 placebo, six BT061)
# Source text: This system defines a value of ACR 20 as an at least 20% improvement in tender and swollen joint counts and at least 20% improvement in 3 of the 5 remaining ACR core set measures: patient and physician global assessments, pain, disability, and an acute phase reactant, such as C-reactive protein (CRP) or Erythrocyte Sedimentation Rate (ESR). Similarly, ACR 50 and ACR 70 scores define an at least 50% and an at least 70% improvement, respectively.
# As indicated above, in one aspect of the invention the agent and/or methotrexate are administered subcutaneously. In general, as is known in the art, subcutaneous doses need to be larger than intravenous doses in order to achieve the equivalent therapeutic effect.
# [5] = 2 mg i.v. once weekly for six weeks
# [6] = 50 mg s.c. once weekly for six weeks
molecule,measurement,setting,value
"CN(Cc1cnc2nc(N)nc(N)c2n1)c1ccc(C(=O)N[C@@H](CCC(=O)O)C(=O)O)cc1 [MTX, 4-amino-N10-methylpteroyl glutamic acid]",suppressive activity of Treg cells,[1],88%
B1,Treg mediated suppression of Tresp proliferation,"[2]; Tregs pre-incubated 48 hours with 1 μg/ml plate bound BT061, versus medium alone",able to reduce average proliferative responses of allogeneic stimulated Tresps
same,Treg mediated suppression of Tresp proliferation,"[2]; Tregs pre-incubated 48 hours with 1 μg/ml soluble BT061, versus medium alone",able to reduce average proliferative responses of allogeneic stimulated Tresps
same,"plasma level, conc. 3 h post end of infusion",[3]; dosage 2.5 mg intravenous,0 ng/mL
same,"plasma level, effective cmax (post end of infusion)",[3]; dosage 2.5 mg intravenous,60 to 140 ng/mL
same,"plasma level, conc. 3 h post end of infusion",[3]; dosage 5 mg intravenous,90 to 160 ng/mL
same,"plasma level, effective cmax (post end of infusion)",[3]; dosage 5 mg intravenous,320 to 440 ng/mL
same,"plasma level, conc. 3 h post end of infusion",[3]; dosage 10 mg intravenous,460 to 1400 ng/mL
same,"plasma level, effective cmax (post end of infusion)",[3]; dosage 10 mg intravenous,800 to 2000 ng/mL
same,"plasma level, conc. 3 h post end of infusion",[3]; dosage 20 mg intravenous,1700 to 3300 ng/mL
same,"plasma level, effective cmax (post end of infusion)",[3]; dosage 20 mg intravenous,2300 to 4100 ng/mL
same,"plasma level, conc. 3 h post end of infusion",[3]; dosage 40 mg intravenous,4400 to 6100 ng/mL
same,"plasma level, effective cmax (post end of infusion)",[3]; dosage 40 mg intravenous,5900 to 6500 ng/mL
same,"plasma level, conc. 3 h post end of infusion",[3]; dosage 60 mg intravenous,7700 to 11080 ng/mL
same,"plasma level, effective cmax (post end of infusion)",[3]; dosage 60 mg intravenous,8900 to 15100 ng/mL
same,percentage of patients showing ACR20,[4]; [5],50%
same,percentage of patients showing ACR50,[4]; [5],25%
same,percentage of patients showing ACR70,[4]; [5],12.5%
same,percentage of patients showing ACR20,[4]; [6],50%
same,percentage of patients showing ACR50,[4]; [6],25%
same,percentage of patients showing ACR70,[4]; [6],12.5%
